Values of other authors, collected in PMC2880639.

Biological target: His62 (UniProt position 62, VESEAHPGSVQ)
Experiment: kinetics
Settings: dissociated species undergoing association

Substance: R67 dihydrofolate reductase (type II DHFR) (Escherichia coli (plasmid R67))
- pKa: 6.6
